Literature values in PMC5493979.

Target: LRAT (UniProt O95237)
Chain of UniProt O95237 (O95237 whole entry): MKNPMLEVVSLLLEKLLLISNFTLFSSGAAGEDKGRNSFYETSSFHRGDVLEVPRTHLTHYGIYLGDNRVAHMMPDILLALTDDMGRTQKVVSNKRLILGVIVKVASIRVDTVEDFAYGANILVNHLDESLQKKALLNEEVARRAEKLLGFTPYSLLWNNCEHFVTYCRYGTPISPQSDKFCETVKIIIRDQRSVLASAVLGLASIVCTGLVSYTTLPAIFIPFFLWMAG

- Ki: 200 nM
Substance: apo-CRBP1 (from UniProt P09455)
